One assay deals with T1, CD19 (UniProt P15391 20-556, limits assumed).
T1 construct: whole, on cells
T1 sequence (looked up): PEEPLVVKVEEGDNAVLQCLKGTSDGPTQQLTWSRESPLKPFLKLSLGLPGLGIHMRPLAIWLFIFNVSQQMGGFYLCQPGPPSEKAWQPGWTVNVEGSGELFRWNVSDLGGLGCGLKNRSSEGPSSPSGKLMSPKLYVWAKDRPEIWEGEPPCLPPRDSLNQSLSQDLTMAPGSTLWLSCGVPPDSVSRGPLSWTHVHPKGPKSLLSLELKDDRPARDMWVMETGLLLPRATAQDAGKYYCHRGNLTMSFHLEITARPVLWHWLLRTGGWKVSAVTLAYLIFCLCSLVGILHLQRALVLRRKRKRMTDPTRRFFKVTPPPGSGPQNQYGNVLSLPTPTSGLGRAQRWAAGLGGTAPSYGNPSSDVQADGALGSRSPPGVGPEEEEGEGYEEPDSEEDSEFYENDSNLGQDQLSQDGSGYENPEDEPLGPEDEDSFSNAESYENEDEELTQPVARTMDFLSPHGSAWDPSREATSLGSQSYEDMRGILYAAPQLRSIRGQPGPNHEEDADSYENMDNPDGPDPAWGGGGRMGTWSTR
The assay can be described thus: FCM or ELISA (graded summary table). For orientation: ELISA stands for enzyme-linked immunosorbent assay.

For a further assay, the target named is T2, CD40 (human, UniProt P25942 21-193).
T2 construct: In the reporter assay it is whole, on GS-H2-huCD40 cells; also called huCD40
The assay can be described thus: CD40 binding (method not given).

Our source for the binding result and EC50 values is US20250388669A1 (published 2025).

As a reminder, the EC50 is the concentration needed to bring the measured effect to its halfway point. Low values mean higher potency in that assay, high ones lower potency in that assay.

T2 sequence (P25942 21-193 limits assumed): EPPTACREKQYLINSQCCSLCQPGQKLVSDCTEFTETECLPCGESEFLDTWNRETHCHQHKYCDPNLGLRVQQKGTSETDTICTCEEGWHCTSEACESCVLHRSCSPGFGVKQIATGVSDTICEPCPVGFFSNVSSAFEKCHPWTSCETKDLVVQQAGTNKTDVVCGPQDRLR

B1: Ly2278 (bispecific antibody)
chain 1: QVQLQQSGAELVRPGSSVKISCKASGYAFSSYWMNWVKQRPGQGLEWIGQIWPGDGDTNYNGKFKGKATLTADESSSTAYMQLSSLASEDSAVYFCARRETTTVGRYYYAMDYWGQGTTVTVSSASTKGPSVFPLAPSSKSTSGGTAALGCLVKDYFPEPVTVSWNSGALTSGVHTFPAVLQSSGLYSLSSVVTVPSSSLGTQTYICNVNHKPSNTKVDKKVEPKSCGGGGSGGGGSGGGGSGGGGSEVQLVESGGGLVQPGGSLRLSCAASGFTFSTYAMNWVRQAPGKGLEWVGRIRSKYNNYATYYADSVKGRFTISRDDSKNSLYLQMNSLKTEDTAVYYCVRHGNFGNSYVSWFAYWGQGTLVTVSSGGGGSDKTHTCPPCPAPEAAGPSVFLFPPKPKDTLMISRTPEVTCVVVDVSHEDPEVKFNWYVDGVEVHNAKTKPREEQYNSTYRVVSVLTVLHQDWLNGKEYKCKVSNKALPAPIEKTISKAKGQPREPQVYTLPPSREEMTKNQVSLWCLVKGFYPSDIAVEWESNGQPENNYKTTPPVLDSDGSFFLYSKLTVDKSRWQQGNVFSCSVMHEALHNHYTQKSLSLSPG
chain 2: QVQLQQSGAELVRPGSSVKISCKASGYAFSSYWMNWVKQRPGQGLEWIGQIWPGDGDTNYNGKFKGKATLTADESSSTAYMQLSSLASEDSAVYFCARRETTTVGRYYYAMDYWGQGTTVTVSSASTKGPSVFPLAPSSKSTSGGTAALGCLVKDYFPEPVTVSWNSGALTSGVHTFPAVLQSSGLYSLSSVVTVPSSSLGTQTYICNVNHKPSNTKVDKKVEPKSCGGGGSGGGGSGGGGSGGGGSQAVVTQEPSLTVSPGGTVTLTCRSSTGAVTTSNYANWVQQKPGQAPRGLIGGTNKRAPWTPARFSGSLLGGKAALTITGAQAEDEADYYCALWYSNLWVFGGGTKLTVLGGGGSDKTHTCPPCPAPEAAGPSVFLFPPKPKDTLMISRTPEVTCVVVDVSHEDPEVKFNWYVDGVEVHNAKTKPREEQYNSTYRVVSVLTVLHQDWLNGKEYKCKVSNKALPAPIEKTISKAKGQPREPQVYTLPPSREEMTKNQVSLSCAVKGFYPSDIAVEWESNGQPENNYKTTPPVLDSDGSFFLVSKLTVDKSRWQQGNVFSCSVMHEALHNRFTQKSLSLSPG
light: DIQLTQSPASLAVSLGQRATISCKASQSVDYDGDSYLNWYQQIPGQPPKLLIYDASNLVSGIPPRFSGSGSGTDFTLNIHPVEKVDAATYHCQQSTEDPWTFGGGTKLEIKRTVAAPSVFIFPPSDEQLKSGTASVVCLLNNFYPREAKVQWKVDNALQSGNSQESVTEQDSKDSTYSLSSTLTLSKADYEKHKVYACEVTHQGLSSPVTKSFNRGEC
notes: Bispecific CD19 (two Fabs) / CD3 (central Fv)
As to B1, the binding result in the assay with CD19 is on record as “binds”.

B2: Ly2280 (bispecific antibody)
chain 1: not shown
chain 2: QVTLKESGPALVKPTQTLTLTCTFSGFSLSTSGTCVSWIRQPPGKALEWLATICWEDSKGYNPSLKSRLTISKDTSKNQAVLTMTNMDPVDTATYYCARREDSGYFWFPYWGQGTLVTVSSASTKGPSVFPLAPSSKSTSGGTAALGCLVKDYFPEPVTVSWNSGALTSGVHTFPAVLQSSGLYSLSSVVTVPSSSLGTQTYICNVNHKPSNTKVDKKVEPKSCGGGGSGGGGSGGGGSGGGGSDIQMTQSPSSVSASVGDRVTITCRASQGIYSWLAWYQQKPGKAPNLLIYTASTLQSGVPSRFSGSGSGTDFTLTISSLQPEDFATYYCQQANIFPLTFGGGTKVEIKGGGGSDKTHTCPPCPAPEAAGPSVFLFPPKPKDTLMISRTPEVTCVVVDVSHEDPEVKFNWYVDGVEVHNAKTKPREEQYNSTYRVVSVLTVLHQDWLNGKEYKCKVSNKALPAPIEKTISKAKGQPREPQVYTLPPSREEMTKNQVSLSCAVKGFYPSDIAVEWESNGQPENNYKTTPPVLDSDGSFFLVSKLTVDKSRWQQGNVFSCSVMHEALHNRFTQKSLSLSPG
light: NIQMTQSPSSLSASVGDRVTITCKAGQNVNNYLAWYQQKPGKAPKVLIFNANSLQTGVPSRFSGSGSGTDFTLTISSLQPEDFATYYCQQYNSWPTFGGGTKVEIKRTVAAPSVFIFPPSDEQLKSGTASVVCLLNNFYPREAKVQWKVDNALQSGNSQESVTEQDSKDSTYSLSSTLTLSKADYEKHKVYACEVTHQGLSSPVTKSFNRGEC
notes: PD-1 Fabs, central CD40 Fv
For the molecule B2, the EC50 with CD40 was 3.17 µg/mL.

B3: Ly238 (antibody, V domains shown)
VH: QVQLQQSGAELVRPGSSVKISCKASGYAFSSYWMNWVKQRPGQGLEWIGQIWPGDGDTNYNGKFKGKATLTADESSSTAYMQLSSLASEDSAVYFCARRETTTVGRYYYAMDYWGQGTTVTVSS
VL: DIQLTQSPASLAVSLGQRATISCKASQSVDYDGDSYLNWYQQIPGQPPKLLIYDASNLVSGIPPRFSGSGSGTDFTLNIHPVEKVDAATYHCQQSTEDPWTFGGGTKLEIK
notes: Parent mAb; also called Anti-CD19 Ly238; parent anti-CD19 mAb
On to B3, for which the binding result in the assay with CD19 is recorded as “binds”.
